Key:
Format in all cases: physicochemical
[1] = Solubility of purified solid protein-PEG conjugates in water
[2] = Sequential time release of BSA encapsulated in PEG aerogel in distilled water (UV-spectroscopy); settings: room temperature
Protocol: As an example of encapsulation and release of pharmaceutical biologics, release tests conducted using one sample weighing 13 mg PEG aerogel encapsulating 1 mg BSA protein in 10 ml distilled water at room temperature. Small solution samples were withdrawn at indicated time intervals above for BSA analysis with UV-spectroscopy at 280 and 260 nm wavelength. Results are calculated and tabulated.

[3] = Drug loading and biologics encapsulation in PEG aerogel granules
Protocol: To 1 gram PEG [MW=2,000,000] dissolved in 100 ml anhydrous toluene, 100 mg [0.1 gram] BSA powder is dispersed and the mixture was stirred at 38-45° C. for 30-60 minutes to allow coating/adsorption of soluble PEG molecules on solid BSA particles. 0.2 g benzoyl peroxide was heated in 15 ml anhydrous toluene at 85° C. for 10 minutes. After cooling to 76° C., the catalyst solution was added to the warm PEG-BSA suspension at 38° C., which raised the temperature to 43° C., and mixing was continued for 15 minutes. The solution was poured into a mold and stored in a glove box. Toluene was later removed from the gel by solvent extraction with supercritical carbon dioxide fluid to obtain dry solid aerogel encapsulating BSA fine particles.
5 ml (=2.6 g) granules from PEG aerogel #2 (2009 cold preparation) were desiccated overnight to remove any absorbed vapors during storage.
Gemzar [Eli Lilly, Indiana] solution was made by dissolving 200 mg Gemcitabine HCl in 5 ml 0.9% NaCl [sodium chloride] aqueous solution. 2.3 ml (0.61 g) PEG aerogel #1 [“hot” preparation, 2009] granules were desiccated overnight to remove any absorbed vapors during storage. […] The mixture was placed in a desiccator to remove excess water and render dry loaded aerogel granules.
BSA protein (MW=66,000) was used as an example of large biologic molecules to be encapsulated in PEG aerogel during the gelation process. The encapsulation method is described in the aerogel preparation section.

[4] = of the PEG aerogel granules carrying the drug/biologic

## BSA-PEG-N: BSA linked to aerogel of PEG + Bis(3-aminopropyl) terminated PEG 1,500/2,100
[1]; Body Temperature (37° C.)
  Solubility in Water: No
[1]; Room Temperature (23° C.)
  Solubility in Water: No

## BSA-PEG-O: BSA linked to aerogel of PEG + Diglycidylether terminated PEG, 1000
[1]; Body Temperature (37° C.)
  Solubility in Water: No
[1]; Room Temperature (23° C.)
  Solubility in Water: No

## BSA-PEG: BSA surface-linked via EDC to PEG only aerogel
[1]; Body Temperature (37° C.)
  Solubility in Water: No
[1]; Body Temperature (37° C.), listed as aerogel-BSA “conjugate”
  Solubility in Water: water insoluble
[1]; Room Temperature (23° C.)
  Solubility in Water: No

## bovine serum albumin [BSA Protein]
[2]; 15 minutes, 13 mg PEG aerogel with 1 mg BSA in 10 ml distilled water
  Released BSA: 0.19 mg
[2]; 15 minutes, distilled water
  Cumulative Percent Release: 19 % of 1 mg
  Cumulative Release: 0.19 mg
[2]; 3 hours (increment), distilled water
  Released BSA: 0.22 mg
[2]; 3 hours, distilled water
  Cumulative Percent Release: 41 % of 1 mg
  Cumulative Release: 0.41 mg
[2]; 20 hours (increment), distilled water
  Released BSA: 0.26 mg
[2]; 20 hours, distilled water
  Cumulative Percent Release: 67 % of 1 mg
  Cumulative Release: 0.67 mg
[3]; [4]
  Aerogel Density: 0.30 g/cc
  Aerogel Porosity: 75% vol %
[3]; weight of solution (or BSA) per g PEG aerogel
  Loading/Encapsulation: 77 mg/g Aerogel
[3]; weight of solution (or BSA) per ml PEG aerogel
  Loading/Encapsulation: 23 mg/ml Aerogel
